Measured values published in patent publication CN114014929A (JIANGSU QYUNS THERAPEUTICS CO LTD, dated 2022).

Legend:
[1] = target: T1, 人白介素-33 (human interleukin-33, recombinant) (human, UniProt O95760 112-270); experiment: cell-based or functional assay
T1 sequence: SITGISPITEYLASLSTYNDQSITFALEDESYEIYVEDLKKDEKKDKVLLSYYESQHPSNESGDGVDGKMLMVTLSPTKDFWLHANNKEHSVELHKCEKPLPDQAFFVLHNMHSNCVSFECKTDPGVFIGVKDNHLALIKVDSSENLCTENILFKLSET

[2] = target: T2, 天然人白介素-33 (natural human interleukin-33 from HFL-1 cell lysate) (human, UniProt O95760 1-270, limits assumed); experiment: cell-based or functional assay
T2 sequence (looked up): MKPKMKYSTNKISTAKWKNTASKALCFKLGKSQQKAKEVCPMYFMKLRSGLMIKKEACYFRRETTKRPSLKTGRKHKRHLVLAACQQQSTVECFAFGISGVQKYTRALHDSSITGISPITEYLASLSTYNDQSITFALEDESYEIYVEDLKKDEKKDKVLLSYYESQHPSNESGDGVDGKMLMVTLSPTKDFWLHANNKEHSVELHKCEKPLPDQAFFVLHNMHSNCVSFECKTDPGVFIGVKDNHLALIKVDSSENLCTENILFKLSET

B1: QX007N(HZD78-70) (antibody, V domains shown)
VH: EVQLVESGGGLVQPGGSLRLSCAASGFSLSSYHMIWVRQAPGKGLEWVGVIYPNSNIYYATWAKGRFTISRDNSKNTLYLQMNSLRAEDTAVYYCARTIYVHVYSALSIWGQGTLVTVSS
VL: AFQMTQSPSSVSASVGDRVTITCQASESVLNEVSWYQQKPGKAPKLLIYFASKLASGVPSRFSGSGSGTDFTLTISSLQPEDFATYYCQQDWSMDNIDNAFGGGTKVEIKR
In the case of B1, the “中和人白介素-33诱导人全血释放IFN-γ, IC50” value [1] is reported as 16 ng/mL, the “中和人白介素-33诱导的KU812细胞释放IL-5 (IL-5 ELISA), IC50” value [1] is reported as 5.87 ng/mL and the “中和重组人白介素-33诱导HEK Blue IL-33细胞中NF-κB/AP-1信号转导 (SEAP, OD630nm), IC50” value [1] is reported as 6.67 ng/mL. The “中和天然人白介素-33诱导HEK Blue IL-33细胞中NF-κB/AP-1信号转导 (SEAP, OD630nm), IC50” value [2] was 3.91 ng/mL.
